Columns and labels:
[1] = biological target: T1, murine CD200R2a (murine, UniProt Q6XJV6 25-249); test: FACS, FITC-CD200Fc on COS cells transiently transfected with CD200R isoform cDNA
T1 sequence: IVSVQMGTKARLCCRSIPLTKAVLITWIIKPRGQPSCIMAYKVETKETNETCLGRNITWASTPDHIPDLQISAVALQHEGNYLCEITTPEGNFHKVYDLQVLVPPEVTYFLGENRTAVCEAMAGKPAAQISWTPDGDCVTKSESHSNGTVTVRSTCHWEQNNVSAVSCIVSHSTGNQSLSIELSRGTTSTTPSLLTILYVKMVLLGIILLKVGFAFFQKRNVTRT
Description: (§1) In order to assess whether the various CD200R isoforms described could all serve as counter-igands for CD200, an immunoadhesin (CD200Fc) incorporating the extracellular domain of CD200 linked to a murine IgG2a Fc region as described (51) was used. CD200Fc was coupled to FITC and the inventors then examined by FACS analysis binding of FITC-labeled CD200Fc to COS cells transiently transfected with pBK vectors encoding cDNAs for the various CD200R isoforms. As control the inventors examined binding to COS cells transduced with empty pBK vectors. COS cells expressing the different CD200R isoforms all bound FITC-CD200Fc.

[2] = biological target: T2, murine CD200R3a (murine, UniProt Q5UKY4 26-272); test: as above
T2 sequence: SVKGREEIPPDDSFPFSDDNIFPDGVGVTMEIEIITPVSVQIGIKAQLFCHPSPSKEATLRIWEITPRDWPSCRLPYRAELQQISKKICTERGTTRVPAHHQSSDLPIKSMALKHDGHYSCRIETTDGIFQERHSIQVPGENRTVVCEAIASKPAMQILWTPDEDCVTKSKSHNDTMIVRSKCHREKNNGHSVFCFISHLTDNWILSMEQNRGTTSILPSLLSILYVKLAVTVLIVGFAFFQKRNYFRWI
Description: as §1

[3] = biological target: T3, CD200 receptor (CD200R) on primary mouse cells, isoform not stated (mouse) (UniProt Q9ES57); test: cell-based or functional assay
T3 sequence: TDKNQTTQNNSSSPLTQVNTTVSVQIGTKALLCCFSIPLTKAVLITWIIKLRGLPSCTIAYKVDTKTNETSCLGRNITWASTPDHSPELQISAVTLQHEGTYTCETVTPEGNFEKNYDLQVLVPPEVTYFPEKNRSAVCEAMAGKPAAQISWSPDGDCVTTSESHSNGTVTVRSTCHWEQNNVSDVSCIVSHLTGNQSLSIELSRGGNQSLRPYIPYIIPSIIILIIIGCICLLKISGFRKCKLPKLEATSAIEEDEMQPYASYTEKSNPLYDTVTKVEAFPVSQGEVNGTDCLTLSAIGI

B1: CD200Fc immunoadhesin (extracellular domain of CD200 linked to a murine IgG2a Fc region) (Fc fusion, mouse, UniProt O54901 31-232, looked up)
chain: QVEVVTQDERKALHTTASLRCSLKTSQEPLIVTWQKKKAVSPENMVTYSKTHGVVIQPAYKDRINVTELGLWNSSITFWNTTLEDEGCYMCLFNTFGSQKVSGTACLTLYVQPIVHLHYNYFEDHLNITCSATARPAPAISWKGTGTGIENSTESHFHSNGTTSVTSILRVKDPKTQVGKEVICQVLYLGNVIDYKQSLDKG
modifications: FITC-labelled in the binding assays
notes: extracellular domain; Made in a baculovirus system in Sf insect cells; also called FITC-CD200Fc; FITC-CD200:Fc; not shown: murine IgG2a Fc region; the ch
binding result [1]: binds | binding result [2]: binds

B2: mouse CD200 on dendritic cells (ligand, UniProt O54901 31-278, looked up)
chain: QVEVVTQDERKALHTTASLRCSLKTSQEPLIVTWQKKKAVSPENMVTYSKTHGVVIQPAYKDRINVTELGLWNSSITFWNTTLEDEGCYMCLFNTFGSQKVSGTACLTLYVQPIVHLHYNYFEDHLNITCSATARPAPAISWKGTGTGIENSTESHFHSNGTTSVTSILRVKDPKTQVGKEVICQVLYLGNVIDYKQSLDKGFWFSVPLLLSIVSLVILLVLISILLYWKRHRNQERGESSQGMQRMK
IFNγ in MLC at 40 hrs; CD200R+ cells + CD200+ DC [3]: 145 pg/mL | IFNγ in MLC; CD200R+ cells + CD200+ DC, no mAb [3]: 170 pg/mL | IL-2 in MLC at 40 hrs; CD200R+ cells + CD200+ DC [3]: 160 pg/mL | IL-2 in MLC; CD200R+ cells + CD200+ DC, no mAb [3]: 165 pg/mL | IL-4 in MLC at 40 hrs; CD200R+ cells + CD200+ DC [3]: 255 pg/mL | IL-10 in MLC at 40 hrs; CD200R+ cells + CD200+ DC [3]: 225 pg/mL

— patent publication US20080267967A1 (TRILLIUM THERAPEUTICS, published 2008)
